The sequences below were run against PARP-1 (UniProt P09874) (assay: EMSA). Settings: EMSA: 20 mM Tris-HCl pH 8, 30 mM KCl, 1.5 mM MgCl2, 1 mM DTT, 8% glycerol, 50 uM ZnAc, 2.5 ng/mL poly[dI-dC], 25 C, 50 nM DNA; pull-down: 20 mM Tris-HCl pH ….
Sequence of PARP-1 (P09874 2-1014): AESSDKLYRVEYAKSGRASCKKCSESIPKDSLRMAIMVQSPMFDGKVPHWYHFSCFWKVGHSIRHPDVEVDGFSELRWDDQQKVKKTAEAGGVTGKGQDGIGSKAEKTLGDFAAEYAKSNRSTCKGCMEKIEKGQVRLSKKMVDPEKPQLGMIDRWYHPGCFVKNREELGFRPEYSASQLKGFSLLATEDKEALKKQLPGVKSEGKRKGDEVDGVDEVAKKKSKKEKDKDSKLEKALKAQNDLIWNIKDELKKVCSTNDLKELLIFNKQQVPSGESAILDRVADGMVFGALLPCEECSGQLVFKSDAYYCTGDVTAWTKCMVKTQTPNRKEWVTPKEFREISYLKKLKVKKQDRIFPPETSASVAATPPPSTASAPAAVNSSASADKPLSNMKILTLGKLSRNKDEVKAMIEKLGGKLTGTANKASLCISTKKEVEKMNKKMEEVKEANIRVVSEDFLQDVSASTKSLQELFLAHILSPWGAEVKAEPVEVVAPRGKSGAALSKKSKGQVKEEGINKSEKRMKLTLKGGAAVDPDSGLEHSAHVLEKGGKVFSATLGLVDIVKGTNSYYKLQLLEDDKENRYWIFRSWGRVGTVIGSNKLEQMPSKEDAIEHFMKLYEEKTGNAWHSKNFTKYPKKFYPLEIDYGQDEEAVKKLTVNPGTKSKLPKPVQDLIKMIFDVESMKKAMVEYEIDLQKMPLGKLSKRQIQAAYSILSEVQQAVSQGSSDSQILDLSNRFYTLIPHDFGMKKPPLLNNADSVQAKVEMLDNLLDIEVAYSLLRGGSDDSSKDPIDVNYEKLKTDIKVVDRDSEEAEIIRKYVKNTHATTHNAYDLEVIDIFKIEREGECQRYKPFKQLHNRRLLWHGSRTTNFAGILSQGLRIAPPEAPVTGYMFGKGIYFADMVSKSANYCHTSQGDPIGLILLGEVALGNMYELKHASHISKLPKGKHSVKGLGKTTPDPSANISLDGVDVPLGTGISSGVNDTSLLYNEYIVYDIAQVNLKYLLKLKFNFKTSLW
In the case of “CGGGCCGGCGGGGGAGGAGCGGGGGCCGGGC [Cy5.5-mid2 (G4 mid2)]”, the Kd is reported as 370 nM.
“CGGGGAGAAGGAGGGGGCCGGGCCGGGC [Cy5.5-mid1 (G4 mid1)]” was tested, and the Kd was 360 nM.
In the case of “AGGGCGGTGTGGGAAGAGGGAAGAGGGGGAGG [Cy5.5-32R (G4 32R)]”, the Kd is reported as 200 nM.

Reference: article PMC7504130
